Target: T1, PPARγ2 and HDAC3 (Homo sapiens, UniProt P37231)
T1 construct: expressed in transfected cells; host or cells: 293T
T1 sequence (P37231 1-505): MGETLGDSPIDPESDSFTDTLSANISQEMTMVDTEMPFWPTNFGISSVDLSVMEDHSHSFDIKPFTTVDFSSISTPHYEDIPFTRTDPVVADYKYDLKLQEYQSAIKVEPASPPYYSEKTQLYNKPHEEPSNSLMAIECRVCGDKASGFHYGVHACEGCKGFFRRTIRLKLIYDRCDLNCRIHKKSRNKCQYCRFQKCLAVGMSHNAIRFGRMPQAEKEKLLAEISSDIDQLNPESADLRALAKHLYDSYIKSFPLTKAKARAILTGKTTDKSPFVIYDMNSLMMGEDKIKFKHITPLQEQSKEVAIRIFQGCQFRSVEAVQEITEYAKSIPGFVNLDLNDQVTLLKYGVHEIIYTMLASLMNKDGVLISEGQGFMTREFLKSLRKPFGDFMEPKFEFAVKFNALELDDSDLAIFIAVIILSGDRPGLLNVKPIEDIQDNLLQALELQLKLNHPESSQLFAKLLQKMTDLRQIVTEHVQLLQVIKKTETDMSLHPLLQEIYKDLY
Assay: GST pull-down, effect on interaction between PPARγ2 and HDAC3
Type: binding
Conditions: in the presence of ligand (10 nM RZD, 24 hours)
Experimental: Therefore, in order to understand a regulation mechanism of sLZIP in the PPARγ2 transcriptional activity by binding to the FABP4 promoter region, an effect of sLZIP on the interaction between PPARγ2 and HDAC3 was examined. For this purpose, 293T cells were transfected with GST-HDAC3, Myc-PPARγ2 and Flag-sLZIP, and were treated or not treated with 10 nM of RZD for 24 hours. Cell lysates were subjected to GST pull-down analysis using a glutathione 4B bead, and a protein complex was analyzed in SDS-PAGE, and then immunoblotted with anti-GST, anti-Myc and anti-Flag antibodies (FIG. 6A). GST-HDAC3, GST-PPARγ2, Myc-PPARγ2, Flag-sLZIP and Ha-UB were expressed in the 293T cells, and the cells were treated with 10 nM of RZD for 24 hours. Cell lysates were subjected to GST pull-down analysis (FIG. 6B). GST-PPARγ2 and Flag-sLZIP were expressed in the 293T cells and treated with 10 nM of RZD for 24 hours. Cell lysates were subjected to GST pull-down analysis, and a protein complex was analyzed in SDS-PAGE, and then immunoblotted with anti-PGC1α, anti-GST and anti-Flag antibodies (FIG. 6C).

B1: sLZIP: human small leucine-zipper protein, isoform of LZIP, 354 amino acids, no transmembrane domain, GenBank FJ263669, SEQ ID NO: 1 (protein, listed as Homo sapiens)
chain: MELELDAGDQDLLAFLLEESGDLGTAPDEAVRAPLDWALPLSEVPSDWEVDDLLCSLLSPPASLNILSSSNPCLVHHDHTYSLPRETVSMDLESESCRKEGTQMTPQHMEELAEQEIARLVLTDEEKSLLEKEGLILPETLPLTKTEEQILKRVRRKIRNKRSAQESRRKKKVYVGGLESRVLKYTAQNMELQNKVQLLEEQNLSLLDQLRKLQAMVIEISNKTSSSSMYSSDTRGSLPAEHGVLSRQLRALPSEDPYQLELPALQSEVPKDSTHQWLDGSDCVLQAPGNTSCLLHYMPQAPSAEPPLEWPFPDLFSEPLCRGPILPLQANLTRKGGWLPTGSPSVILQDRYSG
interaction between PPARγ2 and HDAC3: enhanced interaction between PPARγ2 and HDAC3
